Results reported in PMC2185562.
“And” between values parts separate entries of the source, which are not always exact repeats. Identical values can stand only once.

Target: endogenous ezrin of LLC-PK1 cells (pig (endogenous in LLC-PK1)) (UniProt F1SB42)
Experiment: SEC

Substance: endogenous ezrin of LLC-PK1 cells (from UniProt F1SB42 1-551) (natural protein)
- percent of the ezrin of the fraction that is oligomers: 15% and 28%
- percent of the total cellular ezrin found as oligomers in this fraction: 12.3% and 2.6%
